In patent US20200317768A1 (published 2020):

T1: human FcγRIIaR extracellular domain with C-terminal His-tag (human, UniProt P12318 34-217)
T1 construct: Expressed in FreeStyle 293 cells and purified; also called human FcγRIIa (type R); FcgRIIaR; not shown: C-terminal His-tag
T1 chain: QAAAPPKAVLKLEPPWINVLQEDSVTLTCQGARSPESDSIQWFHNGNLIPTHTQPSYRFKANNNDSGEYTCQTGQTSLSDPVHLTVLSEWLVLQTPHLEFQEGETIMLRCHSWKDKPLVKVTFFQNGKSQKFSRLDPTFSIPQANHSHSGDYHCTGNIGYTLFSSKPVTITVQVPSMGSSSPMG

T2: cynomolgus monkey FcγRIIIaS extracellular domain with C-terminal His-tag (cynomolgus monkey, UniProt Q8SPW2 21-206 at identity 1.00))
T2 construct: Expressed in FreeStyle 293 cells and purified; also called cyno FcγRIIIaS; cynoFcγRIIIaS; not shown: C-terminal His-tag
T2 chain: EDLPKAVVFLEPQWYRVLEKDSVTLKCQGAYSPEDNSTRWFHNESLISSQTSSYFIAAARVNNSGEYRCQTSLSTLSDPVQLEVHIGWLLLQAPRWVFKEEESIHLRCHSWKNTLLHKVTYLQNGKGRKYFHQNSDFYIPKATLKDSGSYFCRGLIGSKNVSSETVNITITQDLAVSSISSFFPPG

T3: human FcγRIIb extracellular domain with C-terminal His-tag (human, UniProt P31994 43-217)
T3 construct: Expressed in FreeStyle 293 cells and purified; also called humanFcgRIIb; not shown: C-terminal His-tag
T3 sequence: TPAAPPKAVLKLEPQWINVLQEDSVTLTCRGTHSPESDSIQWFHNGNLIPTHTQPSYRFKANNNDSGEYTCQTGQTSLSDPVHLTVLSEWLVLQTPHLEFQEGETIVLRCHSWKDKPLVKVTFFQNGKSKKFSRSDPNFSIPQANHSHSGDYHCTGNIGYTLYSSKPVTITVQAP

T4: cynomolgus monkey FcγRIIa1 extracellular domain with C-terminal His-tag (cynomolgus monkey)
T4 construct: Expressed in FreeStyle 293 cells and purified; also called cyno FcγRIIa1; cynoFcgRIIa1; not shown: C-terminal His-tag
T4 chain: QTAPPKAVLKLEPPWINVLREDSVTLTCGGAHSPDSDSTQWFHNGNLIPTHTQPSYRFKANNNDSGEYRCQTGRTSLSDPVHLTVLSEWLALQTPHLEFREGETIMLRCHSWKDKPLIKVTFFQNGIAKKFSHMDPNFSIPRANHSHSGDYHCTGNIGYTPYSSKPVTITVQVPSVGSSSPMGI

T5: cynomolgus monkey FcγRIIb extracellular domain with C-terminal His-tag (cynomolgus monkey)
T5 construct: Expressed in FreeStyle 293 cells and purified; also called cyno FcγRIIb; cynoFcγRIIb; not shown: C-terminal His-tag
T5 chain: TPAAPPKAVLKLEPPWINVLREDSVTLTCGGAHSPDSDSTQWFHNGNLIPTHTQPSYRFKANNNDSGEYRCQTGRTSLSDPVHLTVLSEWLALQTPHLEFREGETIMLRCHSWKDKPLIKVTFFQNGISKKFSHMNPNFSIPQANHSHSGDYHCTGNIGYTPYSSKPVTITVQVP

T6: human FcγRIIaH extracellular domain with C-terminal His-tag (human, UniProt P12318 34-217)
T6 construct: Expressed in FreeStyle 293 cells and purified; also called human FcγRIIa (type H); FcgRIIaH; not shown: C-terminal His-tag
T6 sequence: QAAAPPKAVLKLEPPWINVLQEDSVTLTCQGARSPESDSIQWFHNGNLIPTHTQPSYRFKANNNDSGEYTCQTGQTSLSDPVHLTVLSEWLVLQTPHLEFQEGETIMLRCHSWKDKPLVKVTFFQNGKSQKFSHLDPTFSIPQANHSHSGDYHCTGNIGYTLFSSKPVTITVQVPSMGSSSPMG

T7: cynomolgus monkey FcγRIIa2 extracellular domain with C-terminal His-tag (cynomolgus monkey)
T7 construct: Expressed in FreeStyle 293 cells and purified; also called cyno FcγRIIa2; cynoFcgRIIa2; not shown: C-terminal His-tag
T7 chain: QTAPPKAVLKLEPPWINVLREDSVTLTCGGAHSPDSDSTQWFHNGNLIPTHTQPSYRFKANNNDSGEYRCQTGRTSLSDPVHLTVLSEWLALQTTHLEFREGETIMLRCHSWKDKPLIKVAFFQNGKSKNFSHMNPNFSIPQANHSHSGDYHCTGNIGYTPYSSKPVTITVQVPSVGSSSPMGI

B1: M103205H795-MY172 / M103202L889-SK1 (antibody, human IgG1, kappa)
heavy: QVTLKESGPVLVKPTETLTLTCTVSGIDLSHDDISWVRQAPGKGLEWVGIISYAGSTYYASWAKGRLTISKDTSKNQVVLTMTNMDPVDTATYYCARGVPAYSHGGDLWGQGTLVTVSSASTKGPSVFPLAPSSKSTSGGTAALGCLVKDYFPEPVTVSWNSGALTSGVHTFPAVLQSSGLYSLSSVVTVPSSSLGTQTYICNVNHKPSNTKVDKKVEPKSCDKTHTCPPCPAPELLNGPSVFLFPPKPKDTLMISRTPEVTCVVVDVSEEDPEVKFNWYVDGVEVHNAKTKPREEQYNSTYRVVSVLTVLHQDWLNGKEYKCKVSNKALPAPIEKTISKAKGQPREPQVYTLPPSREEMTKNQVSLTCLVKGFYPSDIAVEWESNGQPENNYKTTPGVLDSDGSFFLYSKLTVDKSRWQQGNVFSCSVMHEALHNHYTQKSLSLSP
light: DIVMTQSPATLSLSPGERATLSCTSSQSVYHANWLSWFQQKPGQPPKLLIYWASTLAYGVPSRFSGSGSGTDFTLTISSLQPEDAATYYCAGGYGGGRYAFGQGTKVEIKRTVAAPSVFIFPPSDEQLKSGTASVVCLLNNFYPREAKVQWKVDNALQSGNSQESVTEQDSKDSTYSLSSTLTLSKADYEKHKVYACEVTHQGLSSPVTKSFNRGEC
notes: Position 396 variant derived from MY052, expressed with M103202L889-SK1 as light chain
B2: M103205H795-MY173 / M103202L889-SK1 (antibody, human IgG1, kappa)
heavy: QVTLKESGPVLVKPTETLTLTCTVSGIDLSHDDISWVRQAPGKGLEWVGIISYAGSTYYASWAKGRLTISKDTSKNQVVLTMTNMDPVDTATYYCARGVPAYSHGGDLWGQGTLVTVSSASTKGPSVFPLAPSSKSTSGGTAALGCLVKDYFPEPVTVSWNSGALTSGVHTFPAVLQSSGLYSLSSVVTVPSSSLGTQTYICNVNHKPSNTKVDKKVEPKSCDKTHTCPPCPAPELLNGPSVFLFPPKPKDTLMISRTPEVTCVVVDVSEEDPEVKFNWYVDGVEVHNAKTKPREEQYNSTYRVVSVLTVLHQDWLNGKEYKCKVSNKALPAPIEKTISKAKGQPREPQVYTLPPSREEMTKNQVSLTCLVKGFYPSDIAVEWESNGQPENNYKTTPHVLDSDGSFFLYSKLTVDKSRWQQGNVFSCSVMHEALHNHYTQKSLSLSP
light: DIVMTQSPATLSLSPGERATLSCTSSQSVYHANWLSWFQQKPGQPPKLLIYWASTLAYGVPSRFSGSGSGTDFTLTISSLQPEDAATYYCAGGYGGGRYAFGQGTKVEIKRTVAAPSVFIFPPSDEQLKSGTASVVCLLNNFYPREAKVQWKVDNALQSGNSQESVTEQDSKDSTYSLSSTLTLSKADYEKHKVYACEVTHQGLSSPVTKSFNRGEC
notes: as for B1
B3: M103205H795-MY174 / M103202L889-SK1 (antibody, human IgG1, kappa)
heavy: QVTLKESGPVLVKPTETLTLTCTVSGIDLSHDDISWVRQAPGKGLEWVGIISYAGSTYYASWAKGRLTISKDTSKNQVVLTMTNMDPVDTATYYCARGVPAYSHGGDLWGQGTLVTVSSASTKGPSVFPLAPSSKSTSGGTAALGCLVKDYFPEPVTVSWNSGALTSGVHTFPAVLQSSGLYSLSSVVTVPSSSLGTQTYICNVNHKPSNTKVDKKVEPKSCDKTHTCPPCPAPELLNGPSVFLFPPKPKDTLMISRTPEVTCVVVDVSEEDPEVKFNWYVDGVEVHNAKTKPREEQYNSTYRVVSVLTVLHQDWLNGKEYKCKVSNKALPAPIEKTISKAKGQPREPQVYTLPPSREEMTKNQVSLTCLVKGFYPSDIAVEWESNGQPENNYKTTPIVLDSDGSFFLYSKLTVDKSRWQQGNVFSCSVMHEALHNHYTQKSLSLSP
light: DIVMTQSPATLSLSPGERATLSCTSSQSVYHANWLSWFQQKPGQPPKLLIYWASTLAYGVPSRFSGSGSGTDFTLTISSLQPEDAATYYCAGGYGGGRYAFGQGTKVEIKRTVAAPSVFIFPPSDEQLKSGTASVVCLLNNFYPREAKVQWKVDNALQSGNSQESVTEQDSKDSTYSLSSTLTLSKADYEKHKVYACEVTHQGLSSPVTKSFNRGEC
notes: as for B1
B4: M103205H795-MY175 / M103202L889-SK1 (antibody, human IgG1, kappa)
heavy: QVTLKESGPVLVKPTETLTLTCTVSGIDLSHDDISWVRQAPGKGLEWVGIISYAGSTYYASWAKGRLTISKDTSKNQVVLTMTNMDPVDTATYYCARGVPAYSHGGDLWGQGTLVTVSSASTKGPSVFPLAPSSKSTSGGTAALGCLVKDYFPEPVTVSWNSGALTSGVHTFPAVLQSSGLYSLSSVVTVPSSSLGTQTYICNVNHKPSNTKVDKKVEPKSCDKTHTCPPCPAPELLNGPSVFLFPPKPKDTLMISRTPEVTCVVVDVSEEDPEVKFNWYVDGVEVHNAKTKPREEQYNSTYRVVSVLTVLHQDWLNGKEYKCKVSNKALPAPIEKTISKAKGQPREPQVYTLPPSREEMTKNQVSLTCLVKGFYPSDIAVEWESNGQPENNYKTTPKVLDSDGSFFLYSKLTVDKSRWQQGNVFSCSVMHEALHNHYTQKSLSLSP
light: DIVMTQSPATLSLSPGERATLSCTSSQSVYHANWLSWFQQKPGQPPKLLIYWASTLAYGVPSRFSGSGSGTDFTLTISSLQPEDAATYYCAGGYGGGRYAFGQGTKVEIKRTVAAPSVFIFPPSDEQLKSGTASVVCLLNNFYPREAKVQWKVDNALQSGNSQESVTEQDSKDSTYSLSSTLTLSKADYEKHKVYACEVTHQGLSSPVTKSFNRGEC
notes: as for B1

Assays:
Assay in all cases: SPR (Biacore); KD of SG1 divided by KD of the variant for this FcgR;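 further: relative to parent M103205H795-SG1 carrying the SG1 human heavy chain constant region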
[1] = target: T1, human FcγRIIaR extracellular domain …
Experimental: (§1) The kinetic analysis of interactions between these antibodies and FcγR was carried out using BIACORE® T200 or BIACORE® 4000 (GE Healthcare). HBS-EP+ (GE Healthcare) was used as the running buffer, and the measurement temperature was set to 25° C. A chip produced by immobilizing Protein A. Protein A/G or mouse anti-human IgG kappa light chain (BD Biosciences) onto a Series S Sensor Chip CM4 or CM5 (GE Healthcare) by the amine-coupling method was used. […] After the measurement, the antibody captured on the chip was washed off by allowing reaction with 10 mM glycine-HCl, pH1.5 and 25 mM NaOH so that the chip was regenerated and used repeatedly. The sensorgrams obtained as measurement results were analyzed by the 1:1 Langmuir binding model using the BIACORE® Evaluation Software to calculate the binding rate constant ka (L/mol/s) and dissociation rate constant kd (l/s), and the dissociation constant KD (mol/L) was calculated from these values. […] Regarding such interactions, KD values were calculated using the following 1:1 binding model described in BIACORE® T100 Software Handbook BR1006-48 Edition AE.
(§2) The resultant variants were expressed using M103202L889-SK1 as light chain and their affinity to human and cynoFcγRs were evaluated (Table 20).

[2] = target: T2, cynomolgus monkey FcγRIIIaS …
Experimental: as §1, §2

[3] = target: T3, human FcγRIIb extracellular domain with …
Experimental: as §1, §2

[4] = target: T4, cynomolgus monkey FcγRIIa1 …
Experimental: as §1, §2

[5] = target: T5, cynomolgus monkey FcγRIIb extracellular …
Experimental: as §1, §2

[6] = target: T8, human FcγRIIIaV extracellular domain with C-terminal His-tag (human, UniProt P08637 17-208)
T8 construct: Expressed in FreeStyle 293 cells and purified; also called FcgRIIIaV; not shown: C-terminal His-tag
T8 sequence (P08637 17-208 F176V): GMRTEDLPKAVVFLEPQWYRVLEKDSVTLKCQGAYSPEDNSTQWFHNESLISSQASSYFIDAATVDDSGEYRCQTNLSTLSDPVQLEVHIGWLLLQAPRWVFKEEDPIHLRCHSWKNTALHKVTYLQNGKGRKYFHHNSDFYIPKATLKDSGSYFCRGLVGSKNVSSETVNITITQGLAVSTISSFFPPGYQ
Experimental: as §1, §2

[7] = target: T6, human FcγRIIaH extracellular domain …
Experimental: as §1, §2

[8] = target: T7, cynomolgus monkey FcγRIIa2 …
Experimental: as §1, §2

Row | Binder | KD fold (SG1 = 1) [1] [fold] | KD fold (SG1 = 1) [2] [fold] | KD fold (SG1 = 1) [3] [fold] | KD fold (SG1 = 1) [4] [fold] | KD fold (SG1 = 1) [5] [fold] | KD fold (SG1 = 1) [6] [fold] | KD fold (SG1 = 1) [7] [fold] | KD fold (SG1 = 1) [8] [fold]
1 | B1 | 0.4 | 0.11 | 2.6 | 1.2 | 1.5 | 0.12 | 0.4 | 1.5
2 | B2 | 0.6 | 0.12 | 4.6 | 1.9 | 2.3 | 0.12 | 0.7 | 2.8
3 | B3 | 0.8 | 0.14 | 5.4 | 2.1 | 2.8 | 0.12 | 0.9 | 3.2
4 | B4 | 0.7 | 0.14 | 5.5 | 2.3 | 2.5 | 0.11 | 0.8 | 3.4
